Measurements reported in US20060233785A1, “Immunointeractive molecules and uses thereof” (priority 2001, published 2006).
“Also recorded” adds a separate entry of the source. Where two headings read alike, the source gives them in different places.

Tests used:
Hev b 6 specific IgE = assay: ELISA for Hev b 6 specific human IgE (Examples 8 and 9); format: binding; details: for frequency of IgE reactivity in non-latex allergic subjects: 18 non-latex allergic subjects, compared with 6%; for latex allergic subjects positive for IgE binding by ELISA (positive/total) / latex allergic subjects positive for IgE binding by ELISA: 31 latex allergic subjects; for latex allergic subjects positive for IgE binding by ELISA: cut-off mean + 2 SD of non-latex allergic; for IgE binding by ELISA: sera of latex allergic, Hev b 6 sensitised subjects
Method: (§1) FIG. 6 is an image of sulphonation abolishing the IgE reactivity of rHev b 6. rHev b 6 (A) and sulphonated rHev b 6 (B) were resolved by 16% SDS-PAGE under non-reducing conditions. Gels were either stained with Coomassie Brilliant Blue (1) or transferred to nitrocellulose. Strips with transferred protein were incubated with the Hev b 6-specific mAb 1A5.4 and binding detected (2). Strips with transferred protein were also incubated with sera from two latex allergic, Hev b 6 sensitized subjects (3 and 4) and one non-latex-allergic, atopic subject (5). The presence or absence of IgE binding was then detected. […] Plates were coated with rHev b 6 and sulphonated rHev b 6 and the presence or absence of IgE-binding detected. As a positive control the Hev b 6-specific mAb 1A5 was used. NB indicates no binding of IgE was detected.
(§2) FIG. 7 is a graphical representation of the disruption of the first disulphide bond of Hev b 6 markedly decreasing IgE binding to rHev b6. IgE from the sera of 31 latex allergic and 18 non-latex allergic subjects assayed by ELISA for the ability to bind rHev b 6 (no substitution) and mutant rHev b 6 (cysteine to alanine substitution at amino acid 3). Plates were coated with both rHev b 6 and mutant rHev b 6 and incubated with subjects' sera (A) Population ELISA. Individual dots represent individual readings. The thin horizontal lines indicated the cut-off for positive for IgE binding to mutant rHev b 6 and rHev b 6, calculated as the mean of the readings for non-latex allergic subjects for each antigen plus 2 SD. The thick horizontal lines indicate the mean of each group. (B) Direct comparison of IgE and mAb binding to rHev b 6 and mutant rHev b 6. A1 to 11, latex-allergic subjects. N1, non-latex allergic subject. Dotted line indicates the cut-off for positive for IgE binding for mutant rHev b 6. The solid line indicates the cut-off for positive for IgE binding for rHev b 6.
(§3) Patient serum samples were tested for Hev b 6 specific IgE using our standard ELISA protocol (Sutherland et al. 2002, supra) with rabbit anti-human IgE (Dako, Denmark) at 1 in 1000 dilution followed by swine anti-rabbit IgG-HRP conjugate (Promega) at I in 1000 dilution. For the Hev b 6-specific mAb 1A5.4 (IgG1/kappa isotype) binding was detected using sheep anti-mouse Ig-HRP (Silenus) at 1 in 1000 dilution.

[1] = tested on: Hev b 6-specific mAb 1A5.4; assay: ELISA for Hev b 6-specific mAb binding to rHev b 6 forms; parameters: species or system mouse
Method: as §1, §2, §3

basophils = assay: Basophil Activation Test; format: cell-based, human; details: for activated basophils / basophil activation above background / basophils activated (above background): 10 μg/ml; for basophil activation above background levels / basophil activation over background: latex allergic subjects; for basophil activation above background levels: 0.1 μg/ml (FIGS. 9B and C); for basophil activation over background: 1 μg/ml; for basophil activation: non-latex allergic control subject N2; for basophil activation above background: one subject (FIG. 9B); for basophils activated (above background): latex allergic subjects (FIGS. 9B, C and D)
Method: FIG. 9 is a graphical representation of the basophil Activation Test on a latex allergic donor. Whole blood from a latex allergic, Hev b 6 sensitized subject was incubated with latex allergens. The cells were stained with FITC labelled anti-human IgE polyclonal antibodies and a PE labelled monoclonal anti-human CD63 antibody. Cells were analysed by flow cytometry defining basophils on the basis of scatter (A) and high IgE staining (B). The percentage of activated basophils expressing CD63 was determined (C).
The Basophil Activation Test was performed on whole blood from (A) non-latex allergic subject N2; (B) latex-allergic subject A7; (C) latex-allergic subject A8 and (D) latex-allergic subject A10. Antigens: latex glove extract (GE), hevein peptide (hevein), rHev b 6, mutant rHev b 6 (MU rHev b 6), sulphonated rHev b 6, (sul. rHev b 6), rHev b 5, KLH and house dust mite extract (HDM). All allergens were used at 10 μg/ml except for rHev b 6 and mutant rHev b 6 which were used at 0.1, 1 and 10 μg/ml. The cut-off for positive was set at the level of activated basophils after incubation in stimulation buffer alone (no antigen, horizontal line). A plus symbol (+) indicates antigen to which a subject has either a positive clinical history of allergy and/or a positive reading on an allergen-specific IgE ELISA.
A basophil activation assay based on flow cytometry was used to quantify the activation of basophils after incubation with various allergens. This assay was modified from Paris-Kohler A, Demoly P, Persi L, Lebel B, Bousquet J, Arnoux B. In vitro diagnosis of cypress pollen allergy by using cytofluorimetric analysis of basophils (Basotest). J Allergy Clin Immunol 2000; 105:339-45. Whole blood was collected in 6 ml heparinised vacutainers (Greiner). 100 μl aliquots were preincubated with stimulation buffer (20 mM Hepes, 133 mM NaCl, 5 mM KCl, 7 mM CaCl2, 3.5 mM MgCl2, 1 mg/ml BSA, 20 μl/ml heparin, pH 7.4) containing 2 ng/ml IL-3, for 10 min at 37° C., to increase the sensitivity of the assay. Samples were incubated for 20 min at 37° C. with 100 μl of stimulation buffer alone or stimulation buffer containing either rabbit anti-human IgE (Dako) at 1 in 500 dilution, 2 μM N-fMLP (Sigma, Mo, USA), crude allergen extracts, recombinant latex allergens or Keyhole Limpet Haemocyanin (KLH) (Sigma, Mo, USA). Basophil activation was stopped by incubating at 4° C. for 5 min. Normal goat serum (10 μl) was added to each tube to block non-specific binding of the detection antibody (goat anti-human IgE-FITC) and incubated for 10 min at 4° C. Samples were incubated with goat anti-human IgE-FITC (Caltag, Birmingham, Calif.) at a dilution of 1 in 2.5, and mouse anti-human CD63-R-Phycoerythrin (PE; Caltag, Birmingham, Calif.) at a dilution of 1 in 20, in a 20 μl volume of wash buffer (20 mM HEPES, 133 mM NaCl, 5 mM KCl, 0.27 mM EDTA, pH7.3). RBC were lysed by the addition of 2 ml FACS lysing solution (39 mM NH4Cl, 2.5 mM KHCO3, 0.2 mM EDTA) and incubation for 10 min at room temperature. Cells were centrifuged (250 g, 5 min at 4° C.), resuspended in 3 ml wash buffer, and centrifuged as before. Pellets were resuspended in 200 μl wash buffer, and analysed by flow cytometry (FACScalibur, Becton Dickinson) within 2 h of the experiment. 7AAD (Sigma, Mo, USA) was added to the samples 5 min prior to FACS analysis.

Molecule | frequency of IgE reactivity in non-latex allergic subjects (Hev b 6 specific IgE) | latex allergic subjects positive for IgE binding by ELISA (positive/total) (Hev b 6 specific IgE) | latex allergic subjects positive for IgE binding by ELISA (Hev b 6 specific IgE) [%] | IgE binding by ELISA (Hev b 6 specific IgE) | Hev b 6-specific mAb binding by ELISA [1] | Hev b 6-specific mAb binding by ELISA ([1]; listed as rHevb 6) | activated basophils (basophils; another patient (FIG. 9C)) [%] | basophil activation above background levels (basophils) | basophil activation over background (basophils) | basophil activation (basophils) | basophil activation above background (basophils) [%] | activated basophils (basophils; third patient) | basophils activated (above background) (basophils)
rHev b 6: recombinant Hev b 6 (prohevein) expressed in E. coli from pPROEX-HTa with 6-His tag (protein, left off: small tags and cut ends, recombinant Hev b 6 (prohevein) expressed in E. coli from pPROEX-HTa with 6-His tag) EQCGRQAGGKLCPNNLCCSQWGWCGSTDEYCSPDHNCQSNCKDSGEGVGGGSASNVLATYHLYNSQDHGWDLNAASAYCSTWDANKPYSWRSKYGWTAFCGPVGAHGQSSCGKCLSVTNTGTGAKTTVRIVDQCSNGGLDLDVNVFRQLDTDGKGYERGHITVNYQFVDCGDSFNPLFSVMKSSVIN | same frequency | 21/31 | 68 | bound | bound to a similar extent | comparable reactivity | 60 | 30-50% | 50-60% | negligible | 60 | 70% | 
mutant rHev b 6: rHev b 6 with cysteine to alanine substitution at amino acid 3 of the mature protein (protein, left off: small tags and cut ends, rHev b 6 with cysteine to alanine substitution at amino acid 3 of the mature protein) EQAGRQAGGKLCPNNLCCSQWGWCGSTDEYCSPDHNCQSNCKDSGEGVGGGSASNVLATYHLYNSQDHGWDLNAASAYCSTWDANKPYSWRSKYGWTAFCGPVGAHGQSSCGKCLSVTNTGTGAKTTVRIVDQCSNGGLDLDVNVFRQLDTDGKGYERGHITVNYQFVDCGDSFNPLFSVMKSSVIN | same frequency | 2/31 | 6 |  | comparable reactivity |  | 40 | no activation above background levels | 5-10% | negligible | 15 | no activation | up to 49%
sulphonated rHev b 6: purified rHev b 6 sulphonated in sulphonation buffer to improve solubility (protein, left off: small tags and cut ends) EQCGRQAGGKLCPNNLCCSQWGWCGSTDEYCSPDHNCQSNCKDSGEGVGGGSASNVLATYHLYNSQDHGWDLNAASAYCSTWDANKPYSWRSKYGWTAFCGPVGAHGQSSCGKCLSVTNTGTGAKTTVRIVDQCSNGGLDLDVNVFRQLDTDGKGYERGHITVNYQFVDCGDSFNPLFSVMKSSVIN |  |  |  | no detectable binding; also recorded: lack of reactivity | bound to a similar extent |  |  |  |  |  |  |  | less than 5%
